Laboratory results published in patent publication US20260137799A1, “ANTI-MUC1* ANTIBODY DRUG COMPLEXES AND USES THEREOF” (Minerva Biotechnologies Corporation, priority 2023, published 2026).

What was measured:
[1] = tested on: T47D breast cancer cells (T47D-wt); assay: Antibody internalization (pHrodo Deep Red), T47D-wt; format: cell-based, human
Protocol: Antibodies C2 and 3C2B1 were tested for their ability to be internalized by T47D breast cancer cells (T47D-wt) or T47D cells that were engineered to express high levels of a recombinant MUC1* polypeptide with a 45 amino acid extracellular domain (T47D-MUC1*45), as described in WO2010042562 and WO2010042891. […] C2 internalization was detected within 2.5 hours in T47D-wt cells (FIGS. 3A-3F) and was increased by MUC1*45 expression (FIGS. 3G-3L). […] Unexpectedly, MUC1*45 expression inhibited 3C2B1 internalization (FIG. 3S-3X).
Antibodies C2 and 3C2B1 were coupled to a pH sensitive fluorophore using the pHrodo Deep Red TFP Ester kit (Thermo cat #P35356), according to manufacturer instructions. Cancer cells were seeded at ˜50,000 cells/well onto μ-Slide 8-well tissue culture-treated, chambered coverslip wells (Ibidi 80806) in their recommended media with 10% FBS. Cells were cultured for 48 hours. Slides were transferred into microscope chamber (37° C.—5% CO2) and equilibrated for ˜30 minutes. […]
(§1) Internalization of the fluorescently labeled antibodies was quantified as follows. […] The integrated pixel density (mean gray-scale value×area) was then measured by the ImageJ software. Positively-stained cells were manually counted and the integrated pixel density was divided by the number of positive cells to yield “Pixel Intensity per positive cell”.

[2] = biological target: PSMGFR C-10 peptide (SEQ ID NO: 3) (Homo sapiens, UniProt P15941); assay: ELISA binding to PSMGFR C-10 peptide
Chain of PSMGFR C-10 peptide (SEQ ID NO: 3) (P15941 1110-1144 limits assumed): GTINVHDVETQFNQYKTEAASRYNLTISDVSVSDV
From the text: (§2) Cancer selective anti-MUC1* antibodies bind to a membrane proximal conformational epitope within the MUC1* extracellular domain, as described in WO 2020/146902.
(§3) The 3C2B1 epitope was mapped more precisely with additional PSMGFR peptide variants (FIGS. 2A, 2B).

[3] = Toxicity in animal studies; format: in vivo; conditions: each antibody incorporated into several ADC formats
From the text: Exatecans and deruxtecans can also have bystander effects. […] It is not completely clear whether these side effects are due to the payload or to the HER2 target, which is also expressed on normal lung and normal heart. The first two patients treated with a HER2 targeting CAR T cell product died shortly after the infusion. […] More recently, yet another patient died after being treated with a different HER2-targeting ADC. […] 32CB1, C2 and 20A10 unexpectedly have an extremely high degree of cancer specificity and elicited no toxicities in animal studies, where each antibody was incorporated into several ADC formats.

[4] = tested on: H1975 lung cancer cells (H1975-wt); assay: Antibody internalization (pHrodo Deep Red), H1975-wt; format: cell-based, human; conditions: H1975-wt cells
Protocol: Antibodies C2 and 3C2B1 were tested for their ability to be internalized by H1975 lung cancer cells (H1975-wt) and H1975 cells that were engineered to express high levels of a recombinant MUC1* polypeptide with a 45 amino acid extracellular domain (H1975-MUC1*45). In contrast to the T47D breast cancer cells, H1975-wt cells internalized 3C2B1 faster than they internalized C2 (FIGS. 4A1-4A28, 4C1-4C28 and 4E). Two (2) hours post incubation with H1975-wt cells, […] the cells had internalized C2. […] Similar to the T47D cells, MUC1*45 expression increased the internalization rate of C2 and decreased the internalization rate of 3C2B1 (FIGS. 4B1-4B28, 4D1-4D28 and 4E).
(§4) Antibodies C2 and 3C2B1 were coupled to a pH sensitive fluorophore using the pHrodo Deep Red TFP Ester kit (Thermo cat #P35356), according to manufacturer instructions. Cancer cells were seeded at ˜50,000 cells/well onto μ-Slide 8-well tissue culture-treated, chambered coverslip wells (Ibidi 80806) in their recommended media with 10% FBS. Cells were cultured for 48 hours. Slides were transferred into microscope chamber (37° C.—5% CO2) and equilibrated for ˜30 minutes. The pHrodo Deep Red coupled antibody was then diluted to a concentration of 200 to 300 μg/mL into pre-warmed media supplemented with 10% FBS. Media was removed from the chamber slides and the diluted antibodies were separately added. Fluorescent (655 nm) and phase contrast images at were collected every 10 min for 12h or 16 h with a Leica Thunder Live Cell 3D microscope.
Internalization of the fluorescently labeled antibodies was quantified as follows. Images were imported into ImageJ. The selection tool was used to draw a region of interest (ROI) on the image. The integrated pixel density (mean gray-scale value×area) was then measured by the ImageJ software. Positively-stained cells were manually counted and the integrated pixel density was divided by the number of positive cells to yield “Pixel Intensity per positive cell”.

[5] = tested on: OE19 esophageal cancer cells; assay: Antibody internalization (pHrodo Deep Red), OE19; format: cell-based
Protocol: Internalization of antibody 3C2B1 into HPAFII pancreatic cancer cells (FIGS. 5A-5G) and OE19 esophageal cancer cells (FIGS. 5H-5N) was detectable after 8 hours and nearly complete at 16 hours. The results are quantified in FIG. 5O.
as §4, with “Fluorescent (655 nm) and phase contrast images at were collected every 10 min for 12h or 16 h with a Leica Thunder Live Cell 3D microscope.” left out
as §1

[6] = biological target: PSMGFR peptide (SEQ ID NO: 1) (Homo sapiens, UniProt P15941); assay: ELISA binding to PSMGFR peptide
Chain of PSMGFR peptide (SEQ ID NO: 1) (P15941 1110-1154): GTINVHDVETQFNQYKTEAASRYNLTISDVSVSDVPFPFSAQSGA
From the text: MUC1* is a cancer-specific antigen produced by proteolytic cleavage of the extracellular domain of MUC1. The extracellular domain of MUC1* comprises about 45 amino acids. Monoclonal antibodies generated against the PSMGFR peptide (SEQ ID NO: 1) bind to MUC1*, as described in WO 2020/146902.
as §2, §3

B1: 3C2B1: anti-MUC1* monoclonal antibody that bound to the PSMGFR peptide (antibody, V domains shown)
VH: EVMLVESGGGLVKPGGSLKLSCAASGITFSTYTMSWVRQTPEKRLEWVATISTGGDKTYYSDSVKGRFTISRDNAKNNLYLQMSSLRSEDTALYYCARGTTAMYYYAMDYWGQGTSVTVSS
VL: DIVLTQSPASLAVSLGQRATISCRASKSISTSDYNYIHWYQQKPGQPPKLLIYLASNLESGVPARFSGSGSGTDFTLNIHPVEEEDAATYYCQHSRELPLTFGAGTKLELK
internalization rate compared to C2 [1]: internalized more slowly
binding to PSMGFR C-10 [2]: do not bind
toxicities in animal studies [3]: no toxicities
internalization rate compared to C2 [4]: faster
time by which essentially all the cells had internalized the antibody [4]: ≤ 6 h
fraction of cells that had internalized antibody ([4]; 2 hours post incubation): about one third
fraction of cells that had internalized antibody ([4]; by 4 hours): more than a half
time after which internalization was detectable [5]: 8 h
time at which internalization was nearly complete [5]: 16 h
binding to the PSMGFR 45mer peptide [6]: bind
